According to patent US20200239586A1 (LA TROBE UNIVERSITY, published 2020):

Experiments:
[1] = target: T1, synthetic peptide Sub-domain 2 Cys 4&5 ΔS (human, not fully specified; biotin on the added C-terminal lysine); experiment: peptide ELISA: biotinylated synthetic peptide on neutravidin plate, antibody titrated (legend: 1-0.0001 µg/ml; axis 'Log (c)'), anti-mouse HRP, TMB, OD 450 nm
T1 construct: also called sub-domain 2 cys4&5ΔS mutant
T1 peptide: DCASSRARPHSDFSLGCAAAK

[2] = target: phage-displayed hFn14 extracellular domain mutant D45A (human, UniProt Q9NP84 28-77); experiment: phage ELISA, antibody on plate, 10-fold phage dilutions
From the text: (§1) ELISAs showing the reactivity of the repertoire of hFn14 phage constructs with the anti-Fn14 monoclonal antibodies CRCBT-06-001, CRCBT-06-002, CRCBT-06-003 and CRCBT-06-004. Binding was detected using HRP-conjugated anti-M13-phage polyclonal IgG and TMB substrate. Optical density at 450 nm was quantified using a Spectramax spectrophotometer. Error bars for each dilution represent the standard deviation of duplicate assays. In this figure, reference to “FN14 Ectodomain” is a reference to the extracellular domain of hFn14. Methods according to Epitope mapping using phage expressed Fn14—Method 1.
(§2) The wells of Maxisorp immunoplates (Nunc) were coated overnight at 4° C. with the target monoclonal antibodies or recombinant Tweak-Fc at a concentration of 2 μg/mL in PBS. MAb 5G8 was used as a negative control for ELISA plates coated with tested antibodies. Recombinant Fc alone was used as a negative control for ELISA plates coated with recombinant Tweak-Fc. […] 10-fold serial dilutions of phage were made using 5% skim milk/PBS solution in 2 ml-well microtiter plates and phage dilutions were added to the coated, blocked ELISA plates for 1 hr, with vigorous shaking at room temperature. Phage were subsequently removed from the wells and the ELISA plates were washed 4× with PBS/0.05% Tween 20. HRP-conjugated anti-M13-phage polyclonal IgG diluted in PBS was then added to the wells of the ELISA plates for 1 hr, with vigorous shaking at room temperature. The antibody solution was then removed from the wells and the ELISA plates were washed 5× with PBS/0.05% Tween 20. ELISAs were developed using TMB substrate and the reaction was stopped using 2 M H₂SO₄ solution. Optical density at 450 nm was quantified using a Spectramax absorbance spectrophotometer.

[3] = target: phage-displayed hFn14 extracellular domain mutant K48A (human, UniProt Q9NP84 28-77); experiment: as above
From the text: as §1, §2

[4] = target: phage-displayed hFn14 extracellular domain mutant D62E (human, UniProt Q9NP84 28-77); experiment: as above
From the text: as §1, §2

[5] = target: phage-displayed hFn14 extracellular domain mutant M50A (human, UniProt Q9NP84 28-77); experiment: as above
From the text: as §1, §2

[6] = target: phage expressed hFn14 mutant W42A (human, UniProt Q9NP84 28-77); experiment: phage ELISA (Method 2), antibody on plate, phage dilution 1/X on the x axis
From the text: (§3) For mutants P59A and F63A, binding was detected using HRP-conjugated anti-M13-phage polyclonal IgG and TMB substrate. For all other mutants binding was detected using Biotin-conjugated anti-M13-phage monoclonal antibody followed by HRP-conjugated Streptavidin and TMB substrate. Optical density at 450 nm was quantified using a Spectramax spectrophotometer. Error bars for each dilution represent the standard deviation of duplicate assays. FIG. 27A wild type Fn14, FIG. 27B W42A, FIG. 27C S54A, FIG. 27D A57G, FIG. 27E P59A, FIG. 27F S61A, FIG. 27G F63A, FIG. 27H L65A. In all cases error bars represent the standard deviation. X axis=dilution of phage. Methods according to Epitope mapping using phage expressed Fn14—Method 2
(§4) The wells of Maxisorp immunoplates (Nunc) were coated overnight at 4° C. with the target monoclonal antibodies or recombinant Tweak-Fc at a concentration of 1.5 μg/ml in PBS. mAb 5G8 was used as a negative control for ELISA plates coated with tested antibodies. […] 10-fold serial dilutions of phage were made using PBS solution and phage dilutions were added to the coated, blocked ELISA plates for 1 hour, shaking at room temperature. Phage was subsequently removed from the wells and the ELISA plates were washed three times with PBS/0.05% Tween 20.
(§5) Method A: HRP-conjugated anti-M13-phage antibody (GE Healthcare) at a 1/5000 dilution in PBS was then added to the wells of the ELISA plates for 1 hour, shaking at room temperature. The antibody solution was then removed from the wells and the ELISA plates were washed four times with PBS/0.05% Tween 20. Method B: Biotin-conjugated anti-M13-phage antibody (GE Healthcare) diluted in PBS was then added to the wells of the ELISA plates for 1 hour shaking at room temperature. The antibody solution was then removed from the wells and the ELISA plates were washed three times with PBS/0.05% Tween 20. HRP-conjugated Streptavidin diluted in PBS was then added to the wells of the ELISA plates for 1 hour, shaking at room temperature. The solution was then removed from the wells and the ELISA plates were washed three times with PBS/0.05% Tween 20. ELISAs were developed using TMB substrate and the reaction was stopped using 2 M […] solution.

[7] = target: phage expressed hFn14 mutant P59A (human, UniProt Q9NP84 28-77); experiment: as above
From the text: as §3, §4, §5

[8] = target: phage expressed hFn14 mutant A57G (human, UniProt Q9NP84 28-77); experiment: as above
From the text: as §3, §4, §5

[9] = target: phage expressed hFn14 mutant S61A (human, UniProt Q9NP84 28-77); experiment: as above
From the text: as §3, §4, §5

Measured: binding result

Chain of phage expressed hFn14 mutant A57G (Q9NP84 28-77 A57G): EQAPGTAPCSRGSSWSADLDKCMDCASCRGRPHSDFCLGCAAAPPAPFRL
Chain of phage-displayed hFn14 extracellular domain mutant K48A (Q9NP84 28-77 K48A): as the sequence (Q9NP84 28-77 A57G) above, with K21A, G30A counted along it
Chain of phage expressed hFn14 mutant P59A (Q9NP84 28-77 P59A): as the sequence (Q9NP84 28-77 A57G) above, with G30A, P32A counted along it
Chain of phage-displayed hFn14 extracellular domain mutant D45A (Q9NP84 28-77 D45A): as the sequence (Q9NP84 28-77 A57G) above, with D18A, G30A counted along it
Chain of phage-displayed hFn14 extracellular domain mutant D62E (Q9NP84 28-77 D62E): as the sequence (Q9NP84 28-77 A57G) above, with G30A, D35E counted along it
Chain of phage expressed hFn14 mutant W42A (Q9NP84 28-77 W42A): as the sequence (Q9NP84 28-77 A57G) above, with W15A, G30A counted along it
Chain of phage-displayed hFn14 extracellular domain mutant M50A (Q9NP84 28-77 M50A): as the sequence (Q9NP84 28-77 A57G) above, with M23A, G30A counted along it
Chain of phage expressed hFn14 mutant S61A (Q9NP84 28-77 S61A): as the sequence (Q9NP84 28-77 A57G) above, with G30A, S34A counted along it

B1: CRCBT-06-001 (antibody, IgG2b, V domains shown)
VH: QVQLQQSGGGLVQPGGSMKLSCIASGFTFSSYWMSWVRQSPEKGLEWVAEIRSKSDNYATHYAESVKGKFTISRDDSKSRFFLQMNNLRAEDTGIYYCSSTYADYFHYWGQGTDLTVSS
VL: DIVMTQTPASLAVSLGQRATISCRASQSVSTSTYSYMHWYQQKPGQPPKLLIKYASSLESGVPARFSGSGSGTDFTLNIHPVEEDDTATYYCQHSWEIPYTFGGGTKLEIKR
binds: all assays above

B2: CRCBT-06-002 (antibody, IgG1, V domains shown)
VH: EVKLQQSGGGLVQPGGSMKLSCVASGFTFSYYWMNWVRQSPEQGLEWIAEIRLQSNDYPTHYAESVKGRFTISRDDSKNSVYLQMNNLRPEDTGIYYCACRYADYFDHWGQGTTLTVSS
VL: DTVLTQSPASLVVSLGQRATISCRASQSVSTSDYSYIHWYQQKPGQPPKFLIKYASNRDSGVPARFSGSGSGTDFTLNIHPVEEDDTAIYYCQHSWEIPPTFGAGTKLELQR
binds: all assays above
